Source: article PMC12868882, “Held out wings RNA binding activity in the cytoplasm during early spermatogenesis”

T1: HOW-STAR (STAR domain of Held out wings) (Drosophila melanogaster, UniProt O01367 72-266)
T1 sequence: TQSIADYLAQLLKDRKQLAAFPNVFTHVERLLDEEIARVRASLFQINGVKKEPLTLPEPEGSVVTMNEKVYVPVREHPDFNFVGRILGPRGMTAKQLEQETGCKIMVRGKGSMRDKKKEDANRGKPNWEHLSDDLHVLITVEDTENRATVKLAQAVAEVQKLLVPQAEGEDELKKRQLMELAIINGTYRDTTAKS

B1: Jvl (ssRNA)
RNA: GUUGGCGUGUUUU
B2: Lola (ssRNA)
RNA: ACACACUAACUCGU
B3: Lola + half-site (ssRNA)
RNA: ACACACUAACUCGUAACUAUG
B4: Hipk-RA (ssRNA)
RNA: AGCAGCUAACAAUU
B5: Hipk-RA G5A (ssRNA)
RNA: AGCAACUAACAAUU
B6: Hipk-RA G5U (ssRNA)
RNA: AGCAUCUAACAAUU
B7: Hipk-RA G5C (ssRNA)
RNA: AGCACCUAACAAUU
B8: Hipk-RA A8G (ssRNA)
RNA: AGCAGCUGACAAUU
B9: Hipk double motif (ssRNA)
RNA: UACAACUAACAACUAACAGAU

Columns and labels:
[1] = biological target: T1, HOW-STAR (STAR domain of Held out wings); experiment: fluorescence anisotropy; apparent KD; text: did not bind in the low nanomolar range; RNA binding buffer: 20 mM Tris-HCl pH 7.5, 150 mM NaCl, 0.01% Triton X-100; 20 uL of 5 nM labelled RNA in about 60 uL; at least 45 min equilibration; temperature not stated; conditions: protein: recombinant; tags: His6-GST removed by 3C protease; chain copies: 2; label: 3' 6-carboxyfluorescein
[2] = biological target: T1, HOW-STAR (STAR domain of Held out wings); experiment: fluorescence anisotropy; apparent KD; RNA binding buffer: 20 mM Tris-HCl pH 7.5, 150 mM NaCl, 0.01% Triton X-100; 20 uL of 5 nM labelled RNA in about 60 uL; at least 45 min equilibration; temperature not stated; conditions: protein: recombinant; tags: His6-GST removed by 3C protease; chain copies: 2; label: 3' 6-carboxyfluorescein

Row | Binder | Kd [1] [nM] | Kd [2] [nM]
1 | B1 | 803 | 
2 | B2 |  | 6.05
3 | B3 |  | 9.25
4 | B4 |  | 10.1
5 | B5 |  | 4.65
6 | B6 |  | 12.4
7 | B7 |  | 20.4
8 | B8 |  | 85.3
9 | B9 |  | 7.46
